Earlier results on 1 substance are cited in paper PMC9008539.

pKd: −log10 of the molar value.

For the data set, the target named is PfRh5 (Plasmodium falciparum) (UniProt Q8IFM5).
Sequence of PfRh5 (Plasmodium falciparum) (Q8IFM5 25-526): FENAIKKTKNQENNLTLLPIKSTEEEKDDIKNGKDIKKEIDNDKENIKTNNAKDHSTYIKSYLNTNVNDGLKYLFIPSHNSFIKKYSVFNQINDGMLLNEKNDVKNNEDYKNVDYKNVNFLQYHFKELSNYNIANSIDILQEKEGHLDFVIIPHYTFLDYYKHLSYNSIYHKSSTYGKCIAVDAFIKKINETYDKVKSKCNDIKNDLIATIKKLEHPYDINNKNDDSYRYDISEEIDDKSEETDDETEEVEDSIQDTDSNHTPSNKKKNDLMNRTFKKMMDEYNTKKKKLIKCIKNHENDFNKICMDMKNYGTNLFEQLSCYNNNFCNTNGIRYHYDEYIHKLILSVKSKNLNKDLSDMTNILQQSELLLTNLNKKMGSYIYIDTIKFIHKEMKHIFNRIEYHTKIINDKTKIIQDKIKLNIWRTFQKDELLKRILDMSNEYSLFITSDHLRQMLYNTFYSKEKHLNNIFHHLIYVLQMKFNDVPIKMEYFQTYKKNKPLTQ

Consider PfRipr (from UniProt O97302), for which the pKd was 9.32.
